Molecular target: His-tagged proaerolysin (Aeromonas hydrophila) (UniProt P09167)
Experiment: SEC

stoichiometry N: 2
Substance: His-tagged proaerolysin (from UniProt P09167 24-445) (natural protein)

Reference: article doi:10.1101/2024.09.19.613822
